# Test results as given in the supplement of paper PMC10598134.
# ± gives the standard deviation.
# Assay: collision cross section of modified peptide (TIMS, N2, iRT-aligned); higher = larger / more extended gas-phase ion
# Procedure, shortened: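 Values are averages of 1–3 technical replicates of the most abundant feature for each charge state. Collision cross section was obtained from the Mason-Schamp equation after 1/K0 calibration with three reference ions and run-wise alignment to the median iRT peptide deviation. Synthetic peptide pools (iRT standard spiked 1:40) were separated on a 120-min nanoflow C18 gradient at 60 °C, analysed on a timsTOF Pro/HT (dda-PASEF, nitrogen, ~2.4 mbar) and identified with MaxQuant.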
# [1] = charge state: 2, modification: Butyryl
# [2] = charge state: 3, modification: Butyryl
# [3] = charge state: 3, modification: Citrullination (R)
# [4] = charge state: 2, modification: GlyGly (K)
# [5] = charge state: 3, modification: GlyGly (K)
# [6] = charge state: 2, modification: Phospho (Y)
# [7] = charge state: 2, modification: Glutarylation
# [8] = charge state: 3, modification: Glutarylation
# [9] = charge state: 2, modification: Malonyl
# [10] = charge state: 3, modification: Malonyl
# [11] = charge state: 2, modification: Succinyl
# [12] = charge state: 3, modification: Succinyl
# [13] = charge state: 2, modification: Methyl (K)
# [14] = charge state: 3, modification: Methyl (K)
# [15] = charge state: 2, modification: Citrullination (R)
# [16] = charge state: 2, modification: Propionyl
# [17] = charge state: 2, modification: Dimethyl (K)
# [18] = charge state: 3, modification: Dimethyl (K)
# [19] = charge state: 2, modification: Trimethyl (K)
# [20] = charge state: 3, modification: Trimethyl (K)
# [21] = charge state: 2, modification: Acetyl (K)
# [22] = charge state: 3, modification: Acetyl (K)
# [23] = charge state: 2, modification: Hydroxyproline
# [24] = charge state: 2, modification: Nitro (Y)
# [25] = charge state: 2, modification: Biotin
# [26] = charge state: 3, modification: Biotin
# [27] = charge state: 3, modification: Methyl (R)
# [28] = charge state: 2, modification: Crotonyl
# [29] = charge state: 3, modification: Crotonyl
# [30] = charge state: 2, modification: Formyl
# [31] = charge state: 2, modification: HexNAc (ST)
substance,measurement,setting,value
DYSAPVNFISAGLKK [_DYSAPVNFISAGLK(Butyryl)K_],collision cross section,[1],437.47 ± 5.8 Å²
same,collision cross section,[2],532.64 Å²
AVSILPLLGHGVPRLPPGR [_AVSILPLLGHGVPR(Citrullination (R))LPPGR_],collision cross section,[3],569.33 Å²
PSVSTKLISK [_PSVSTK(GlyGly (K))LISK_],collision cross section,[4],370.29 ± 0.38 Å²
same,collision cross section,[5],434.33 ± 3 Å²
TEVNSGFFYK [_TEVNSGFFY(Phospho (Y))K_],collision cross section,[6],373.38 ± 0.68 Å²
VTLEVGKVIQQGR [_VTLEVGK(Gluratylation)VIQQGR_],collision cross section,[7],418.56 ± 0.59 Å²
same,collision cross section,[8],485.84 ± 1 Å²
DAEAAEATAEGALKAEK [_DAEAAEATAEGALK(Malonyl)AEK_],collision cross section,[9],425.91 ± 1 Å²
same,collision cross section,[10],541.5 Å²
GTISAPGKVVTAAAQAK [_GTISAPGK(Succinyl)VVTAAAQAK_],collision cross section,[11],439.98 ± 0.51 Å²
same,collision cross section,[12],520.85 ± 1.6 Å²
VETTVTSLKTK [_VETTVTSLK(Butyryl)TK_],collision cross section,[1],389.24 ± 1.3 Å²
TEVLSPNSKVESK [_TEVLSPNSK(Methyl (K))VESK_],collision cross section,[13],412.51 ± 2.6 Å²
same,collision cross section,[14],437.62 ± 4.3 Å²
GEVGAGAGPGAQAGPSAKR [_GEVGAGAGPGAQAGPSAK(Butyryl)R_],collision cross section,[1],426.32 ± 1.1 Å²
same,collision cross section,[2],483.04 ± 4.4 Å²
FRSGNYR [_FR(Citrullination (R))SGNYR_],collision cross section,[15],327.94 ± 2.8 Å²
SLKLNTAEDAK [_SLK(GlyGly (K))LNTAEDAK_],collision cross section,[4],394.52 ± 0.87 Å²
same,collision cross section,[5],458.17 ± 2 Å²
PANEKATDDYHYEK [_PANEK(Butyryl)ATDDYHYEK_],collision cross section,[1],443.05 ± 0.53 Å²
same,collision cross section,[2],509.24 ± 1.8 Å²
FDDTNPEKEEAK [_FDDTNPEK(Propionyl)EEAK_],collision cross section,[16],396.96 ± 0.65 Å²
TLDEILQEKK [_TLDEILQEK(Dimethyl (K))K_],collision cross section,[17],379.42 ± 0.37 Å²
same,collision cross section,[18],430.63 ± 2 Å²
VETTVTSLKTK [_VETTVTSLK(Trimethyl (K))TK_],collision cross section,[19],391.95 ± 0.62 Å²
same,collision cross section,[20],455.28 ± 8.1 Å²
ASDTSSETVFGKR [_ASDTSSETVFGK(Acetyl (K))R_],collision cross section,[21],397.17 ± 0.32 Å²
same,collision cross section,[22],476.65 ± 0.87 Å²
GERGFPGYPGPK [_GERGFP(Hydroxyproline)GYPGPK_],collision cross section,[23],370.65 ± 1.8 Å²
SLKLNTAEDAK [_SLK(Gluratylation)LNTAEDAK_],collision cross section,[7],381.67 ± 0.53 Å²
VTLEVGKVIQQGR [_VTLEVGK(Methyl (K))VIQQGR_],collision cross section,[13],428.74 ± 1.9 Å²
same,collision cross section,[14],464.87 ± 3.7 Å²
TQAYQDQKPGTSGLR [_TQAYQDQK(Succinyl)PGTSGLR_],collision cross section,[11],434.09 ± 1.1 Å²
same,collision cross section,[12],483.43 ± 3.9 Å²
AGRGFSLEELR [_AGR(Citrullination (R))GFSLEELR_],collision cross section,[15],372.54 ± 0.24 Å²
PSVGSQSNQAGQGKR [_PSVGSQSNQAGQGK(Trimethyl (K))R_],collision cross section,[20],463.16 ± 1.5 Å²
VGEFSGANKEK [_VGEFSGANK(GlyGly (K))EK_],collision cross section,[4],372.84 ± 0.89 Å²
same,collision cross section,[5],452.89 ± 1.5 Å²
KFGVLSDNFK [_K(Acetyl (K))FGVLSDNFK_],collision cross section,[21],370.76 ± 0.46 Å²
YEQEHAAIQDKLFQVAK [_YEQEHAAIQDK(Malonyl)LFQVAK_],collision cross section,[10],515.74 ± 1.8 Å²
LDHLAEKFR [_LDHLAEK(Acetyl (K))FR_],collision cross section,[21],371.59 ± 0.95 Å²
same,collision cross section,[22],438.53 ± 3.2 Å²
DLSTVEALQNLKNLK [_DLSTVEALQNLK(Gluratylation)NLK_],collision cross section,[8],545.2 Å²
LAPEYEAAATR [_LAPEY(Nitro (Y))EAAATR_],collision cross section,[24],362.69 ± 1.2 Å²
same,collision cross section,"charge state: 3, modification: Nitro (Y)",436.11 ± 1.1 Å²
IISSIEQKEENK [_IISSIEQK(Biotin)EENK_],collision cross section,[25],422.44 ± 3 Å²
same,collision cross section,[26],481.73 ± 1.6 Å²
PGGLGSSSLYGLGASRPR [_PGGLGSSSLYGLGASR(Citrullination (R))PR_],collision cross section,[15],438.36 ± 0.2 Å²
same,collision cross section,[3],521.04 ± 1.9 Å²
GARLPGPVSSAR [_GAR(Methyl (R))LPGPVSSAR_],collision cross section,"charge state: 2, modification: Methyl (R)",360.12 ± 1.2 Å²
same,collision cross section,[27],474.74 ± 8.7 Å²
PSVSTKLISK [_PSVSTK(Acetyl (K))LISK_],collision cross section,[21],351 ± 0.96 Å²
LLIVSTTPYSEKDTK [_LLIVSTTPYSEK(Crotonyl)DTK_],collision cross section,[28],458.47 ± 1.4 Å²
same,collision cross section,[29],486.79 ± 2.7 Å²
ILDLKTGTVK [_ILDLK(Formyl)TGTVK_],collision cross section,[30],351.57 ± 1 Å²
AGQKLIDVNHYAK [_AGQK(Methyl (K))LIDVNHYAK_],collision cross section,[13],421.24 ± 1.5 Å²
same,collision cross section,[14],475.12 ± 2.7 Å²
LLFSNTAAQKLR [_LLFSNTAAQK(Biotin)LR_],collision cross section,[25],418.21 ± 1.1 Å²
same,collision cross section,[26],503.51 Å²
IVSGKDYNVTANSK [_IVSGK(Acetyl (K))DYNVTANSK_],collision cross section,[21],408.96 ± 0.54 Å²
GERGPPGPPGR [_GERGPP(Hydroxyproline)GPPGR_],collision cross section,[23],333.05 Å²
GRGVGSPEPGPTAPYLGR [_GR(Citrullination (R))GVGSPEPGPTAPYLGR_],collision cross section,[15],422.7 ± 0.55 Å²
same,collision cross section,[3],509.44 ± 39 Å²
AIQLNPSYIR [_AIQLNPSY(Phospho (Y))IR_],collision cross section,[6],384.89 ± 0.65 Å²
TLDEILQEKK [_TLDEILQEK(Malonyl)K_],collision cross section,[9],380.87 ± 4.1 Å²
VGLQVVAVKAPGFGDNR [_VGLQVVAVK(Succinyl)APGFGDNR_],collision cross section,[11],449.31 ± 0.96 Å²
same,collision cross section,[12],542.29 ± 1.1 Å²
LEQVEKELLR [_LEQVEK(Butyryl)ELLR_],collision cross section,[1],391.61 ± 1.3 Å²
DASTLQSQKAEGTGDAK [_DASTLQSQK(Succinyl)AEGTGDAK_],collision cross section,[11],437.2 ± 0.35 Å²
same,collision cross section,[12],509.05 ± 1.6 Å²
VVPGYGHAVLR [_VVPGY(Phospho (Y))GHAVLR_],collision cross section,[6],386.55 ± 0.062 Å²
same,collision cross section,"charge state: 3, modification: Phospho (Y)",451.71 Å²
ITGKNQVTATK [_ITGK(Biotin)NQVTATK_],collision cross section,[25],389.13 ± 1.7 Å²
FGDSRGGGGNFGPGPGSNFR [_FGDSR(Methyl (R))GGGGNFGPGPGSNFR_],collision cross section,[27],500.57 ± 1.4 Å²
VGTASVLQPVKK [_VGTASVLQPVK(Trimethyl (K))K_],collision cross section,[19],394.06 ± 0.62 Å²
same,collision cross section,[20],455.76 ± 1.5 Å²
IVSGKDYNVTANSK [_IVSGK(GlyGly (K))DYNVTANSK_],collision cross section,[4],423.62 ± 2 Å²
same,collision cross section,[5],476.53 ± 2.2 Å²
ISPVEESEDVSNK [_ISPVEES(HexNAc (ST))EDVSNK_],collision cross section,[31],415.06 ± 0.62 Å²
YTCSFCGK [_Y(Phospho (Y))TCSFCGK_],collision cross section,[6],336.46 ± 0.067 Å²
APIISGVTK [_APIIS(HexNAc (ST))GVTK_],collision cross section,[31],340.53 ± 0.64 Å²
FEGAIYR [_FEGAIY(Nitro (Y))R_],collision cross section,[24],321.92 ± 0.71 Å²
VYIASSSGSTAIKK [_VYIASSSGSTAIK(Propionyl)K_],collision cross section,[16],415.66 ± 0.38 Å²
ILDLKTGTVK [_ILDLK(Succinyl)TGTVK_],collision cross section,[11],362.99 ± 0.74 Å²
TTEETSKPK [_TTEETSK(Propionyl)PK_],collision cross section,[16],342.02 ± 0.39 Å²
SSGPGGQNVNKVNSK [_SSGPGGQNVNK(Dimethyl (K))VNSK_],collision cross section,[17],397.16 ± 1.7 Å²
same,collision cross section,[18],437.57 ± 2.1 Å²
IVSGKDYNVTANSK [_IVSGK(Biotin)DYNVTANSK_],collision cross section,[25],432.72 ± 2.7 Å²
same,collision cross section,[26],508.73 Å²
LLEEEDSKLK [_LLEEEDSK(Dimethyl (K))LK_],collision cross section,[17],385.27 ± 0.26 Å²
same,collision cross section,[18],435.11 ± 2.1 Å²
GADFLVTEVENGGSLGSKK [_GADFLVTEVENGGSLGSK(Crotonyl)K_],collision cross section,[28],475.14 ± 1.9 Å²
same,collision cross section,[29],548.96 Å²
LEKTIDDLEEK [_LEK(Gluratylation)TIDDLEEK_],collision cross section,[7],410.17 ± 1.1 Å²
DDSNLYINVK [_DDSNLY(Nitro (Y))INVK_],collision cross section,[24],367.46 ± 0.55 Å²
YEQEHAAIQDKLFQVAK [_YEQEHAAIQDK(Methyl (K))LFQVAK_],collision cross section,[14],557.9 ± 0.6 Å²
VGLQVVAVKAPGFGDNR [_VGLQVVAVK(Formyl)APGFGDNR_],collision cross section,[30],440.17 ± 1.2 Å²
same,collision cross section,"charge state: 3, modification: Formyl",529.54 ± 3 Å²
FSAYIKNSNPALNDNLEK [_FSAYIK(Malonyl)NSNPALNDNLEK_],collision cross section,[9],479.79 ± 4.5 Å²
same,collision cross section,[10],527.7 ± 2.3 Å²
TVQGPPGEPGR [_TVQGPPGEP(Hydroxyproline)GR_],collision cross section,[23],345.67 ± 0.89 Å²
IQTKAGEATVK [_IQTK(Formyl)AGEATVK_],collision cross section,[30],359.75 ± 0.38 Å²
